Source: publication doi:10.1101/2024.07.16.603655 (bioRxiv, 2024)
One block for each molecule: values may come before it.

Tests used:
[1] = target: dsRBD3-6xHis (dsRNA binding domain 3 of zebrafish Prkra) (zebrafish); assay: native gel or EMSA
native gel or EMSA = target: the molecule itself; assay: native gel or EMSA

stoichiometry N [1]: 2
Molecule: dsRBD3-6xHis (dsRNA binding domain 3 of zebrafish Prkra) (domain or fragment)

B1: Prkra-6xHis (recombinant wild-type zebrafish Prkra) (natural protein, UniProt B0V3F8 1-282, looked up)
chain: MAPQRSQDKTPIQLLHEYGIKISSAPKYELIHADGDAHQPSFMFSVTIGEVTCKGRGSTKKAAKHEAAEAALKLLKRDSQIIDQRDNNGLSPEAGEASNPVGILQELAMQRVWCLPEYVVFMETGPGHMKEFTIACRLEGLEETGSGSSKKLARRAAAENMIAKLQSLSGSSEITWSPPSRVYVESLRNSTGEKVSLLKRTPLSLPNTDYIQMLLEISLELGFQVTYIDIDELTVNGQYQCLVELSTRPVTVCHGSGVTSSNAHNAAAHNALQYIKMVASKH
stoichiometry N (native gel or EMSA): ~2
